# Publication PMC6761100
# Target: Myc.His.CK1a
# Test: c-Myc immunoprecipitation (CK1a IP)
# Conditions: strains cultured in LL; n = 4; parent: est. 1.0; read off a plot
row,ratio to parent,Sequence
1,0.52,"FREQUENCY (FRQ), wild type (from UniProt P19970) V320I"
2,0.97,"FREQUENCY (FRQ), wild type (from UniProt P19970) Q325N"
3,0.23,"FREQUENCY (FRQ), wild type (from UniProt P19970) L488V"
4,0.68,"FREQUENCY (FRQ), wild type (from UniProt P19970) Q494N"
